The supplement of paper PMC7877785
± gives the uncertainty stated by the source.

Assay: self-splicing fitness, log relative to wild type (ln ratio); higher = more splicing; Tetrahymena group I intron in knt gene, E. coli kanamycin selection, DiMSum; sequences stand for … in CUCUCU…GGAGGGAAAAGUUAUCAGGCAUGCACCUGGUAGCUAGUCUUUAAACCAAUAGAUUGCAUCGGUUUAAAAGGCAAGACCGUCAAAUUGCGGGAAAGGGGUCAACAGCCGUUCAGUACCAAGUCUCAGGGGAAACUUUGAGAUGGCCUUGCAAAGGGUAUGGUAAUAAGCUGACGGACAUGGUCCUAACCACGCAGCCAAGUCCUAAGUCAACAGAUCUUCUGUUGAUAUGGAUGCAGUUCACAGACUAAAUGUCGGUCGGGGAAGAUGUAUUCUUCUCAUAAGAUAUAGUCGGACCUCUCCUUAAUGGGAGCUAGCGGAUGAAGUGAUGCAACACUGGAGCCGCUGGGAACUAAUUUGUAUGCGAAAGUAUAUUGAUUAGUUUUGGAGUACUCGUGGUCG
Procedure, shortened: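 Colonies from six replicate transformations of E. coli BL21(DE3) were pooled and amplicon-sequenced on an Illumina HiSeq 2500. The library placed an intron with all eight P1ex-region nucleotides randomised inside the knt kanamycin-resistance gene on pET-22b(+), and cells grew overnight at 37°C or 30°C on LB agar with or without 25 μg/mL kanamycin (plus 100 μg/mL carbenicillin, 50 μM IPTG, 0.2% rhamnose). Fitness is the DiMSum error-weighted combination of wild-type-normalised replicate fold changes, kanamycin versus none.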

Row | Sequence | self-splicing fitness (ln) (30 °C) | self-splicing fitness (ln) (37 °C)
1 | AAGAAGCAAUAUUACGAGAC | -4.15 ± 0.29 | -2.85 ± 0.25
2 | AAGAAGCAAUAUUACGAGCU | -0.998 ± 0.087 | -1.22 ± 0.11
3 | AAGAAGCAAUAUUACGAGGC | -3.86 ± 0.42 | -2.48 ± 0.33
4 | AAGAAGCAAUAUUACGAUUU | -0.181 ± 0.065 | 0.764 ± 0.1
5 | AAGAAGCAAUAUUACGCAAU | -2.08 ± 0.18 | -1.52 ± 0.2
6 | AAGAAGCAAUAUUACGCCGC | -2.91 ± 0.25 | -2.63 ± 0.26
7 | AAGAAGCAAUAUUACGCCGU | -1.1 ± 0.13 | -0.777 ± 0.15
8 | AAGAAGCAAUAUUACGCGAA | -2.18 ± 0.1 | -0.344 ± 0.093
9 | AAGAAGCAAUAUUACGCGCU | -0.931 ± 0.11 | 0.0502 ± 0.12
10 | AAGAAGCAAUAUUACGCGGA | -2.71 ± 0.16 | -0.37 ± 0.12
11 | AAGAAGCAAUAUUACGCUGU | -2.63 ± 0.13 | -1.28 ± 0.12
12 | AAGAAGCAAUAUUACGCUUC | -3 ± 0.26 | –
13 | AAGAAGCAAUAUUACGGACU | 0.093 ± 0.073 | -0.443 ± 0.083
14 | AAGAAGCAAUAUUACGGGAC | -2.85 ± 0.18 | -2.63 ± 0.44
15 | AAGAAGCAAUAUUACGGUGA | -1.11 ± 0.078 | -0.329 ± 0.092
16 | AAGAAGCAAUAUUACGUAGC | -3.08 ± 0.25 | -2.32 ± 0.31
17 | AAGAAGCAAUAUUACGUAUA | -2.18 ± 0.14 | -1.17 ± 0.15
18 | AAGAAGCAAUAUUACGUCUU | -2.83 ± 0.15 | -1.63 ± 0.14
19 | AAGAAGCAAUAUUACGUGAA | -2.16 ± 0.1 | -0.97 ± 0.091
20 | AAGAAGCAAUAUUACGUGAC | -3.34 ± 0.15 | -1.67 ± 0.11
21 | AAGAAGCAAUAUUACGUUAU | -3.52 ± 0.14 | -1.88 ± 0.15
22 | AAGAAGCAAUAUUACGUUCC | -1.29 ± 0.14 | 0.0973 ± 0.19
23 | AAGAAGCAAUAUUACGUUGG | -3.25 ± 0.18 | -2.71 ± 0.23
24 | AAGCAGCAAUAUUACGAAUA | -2.44 ± 0.16 | -1.21 ± 0.12
25 | AAGCAGCAAUAUUACGAAUC | -2.44 ± 0.16 | -2.12 ± 0.2

Row | Sequence | self-splicing fitness (ln) (30 °C) | self-splicing fitness (ln) (37 °C)
26 | AAGCAGCAAUAUUACGACAA | -1.06 ± 0.075 | -0.277 ± 0.072
27 | AAGCAGCAAUAUUACGACAU | -0.341 ± 0.011 | -0.0663 ± 0.032
28 | AAGCAGCAAUAUUACGACCG | -1.19 ± 0.099 | -0.552 ± 0.15
29 | AAGCAGCAAUAUUACGAGAA | – | -1.29 ± 0.33
30 | AAGCAGCAAUAUUACGAGUC | -4.83 ± 0.32 | -1.87 ± 0.18
31 | AAGCAGCAAUAUUACGAGUU | -1.95 ± 0.077 | -1.07 ± 0.086
32 | AAGCAGCAAUAUUACGAUAG | -3.63 ± 0.2 | -1.45 ± 0.15
33 | AAGCAGCAAUAUUACGCAGA | -2.16 ± 0.11 | -0.306 ± 0.091
34 | AAGCAGCAAUAUUACGCAUG | -2.97 ± 0.2 | -2.27 ± 0.2
35 | AAGCAGCAAUAUUACGCGUC | -3.03 ± 0.16 | -1.7 ± 0.15
36 | AAGCAGCAAUAUUACGGCAG | -1.31 ± 0.065 | -0.525 ± 0.087
37 | AAGCAGCAAUAUUACGGCGG | -1.13 ± 0.12 | -1.01 ± 0.14
38 | AAGCAGCAAUAUUACGGGGC | -3.15 ± 0.23 | -2.54 ± 0.24
39 | AAGCAGCAAUAUUACGGGGU | -3.21 ± 0.13 | -2.56 ± 0.16
40 | AAGCAGCAAUAUUACGGGUC | -3.12 ± 0.12 | -2.61 ± 0.18
41 | AAGCAGCAAUAUUACGGUCU | -0.0787 ± 0.043 | 0.176 ± 0.063
42 | AAGCAGCAAUAUUACGGUUU | -2.78 ± 0.12 | -0.354 ± 0.096
43 | AAGCAGCAAUAUUACGUCGA | -1.03 ± 0.12 | -0.392 ± 0.11
44 | AAGCAGCAAUAUUACGUUCA | -0.676 ± 0.056 | 0.0201 ± 0.064
45 | AAGCAGCAAUAUUACGUUGA | -2.89 ± 0.13 | -1.51 ± 0.11
46 | AAGGAGCAAUAUUACGAAGA | -3.41 ± 0.29 | -3.13 ± 0.37
47 | AAGGAGCAAUAUUACGAAUG | -2.39 ± 0.22 | –
48 | AAGGAGCAAUAUUACGACUC | -1.25 ± 0.15 | -0.365 ± 0.17
49 | AAGGAGCAAUAUUACGAGGU | -3.6 ± 0.23 | -3.6 ± 0.47
50 | AAGGAGCAAUAUUACGAUAA | -3.46 ± 0.25 | -1.94 ± 0.18

Row | Sequence | self-splicing fitness (ln) (30 °C) | self-splicing fitness (ln) (37 °C)
51 | AAGGAGCAAUAUUACGAUCU | -0.603 ± 0.085 | -0.731 ± 0.11
52 | AAGGAGCAAUAUUACGCGGG | -3.76 ± 0.46 | –
53 | AAGGAGCAAUAUUACGCGUU | -2.22 ± 0.17 | -2.15 ± 0.23
54 | AAGGAGCAAUAUUACGCUUU | -3.83 ± 0.32 | -2.93 ± 0.38
55 | AAGGAGCAAUAUUACGGCUC | -4.14 ± 0.37 | -2.77 ± 0.36
56 | AAGGAGCAAUAUUACGGUAU | -3.5 ± 0.26 | -2.06 ± 0.31
57 | AAGGAGCAAUAUUACGUCAU | -3.84 ± 0.2 | -2.94 ± 0.24
58 | AAGGAGCAAUAUUACGUCGC | – | -1.49 ± 0.35
59 | AAGGAGCAAUAUUACGUGAG | -3.51 ± 0.25 | -2.5 ± 0.21
60 | AAGGAGCAAUAUUACGUGGA | -2.36 ± 0.2 | -1.75 ± 0.2
61 | AAGGAGCAAUAUUACGUUAU | -2.99 ± 0.2 | -1.59 ± 0.22
62 | AAGGAGCAAUAUUACGUUCG | -1.78 ± 0.11 | -0.665 ± 0.2
63 | AAGGAGCAAUAUUACGUUGG | -4.4 ± 0.27 | -2.5 ± 0.25
64 | AAGUAGCAAUAUUACGAACC | -1.4 ± 0.36 | -1.57 ± 0.25
65 | AAGUAGCAAUAUUACGACCC | 0.421 ± 0.3 | 0.212 ± 0.29
66 | AAGUAGCAAUAUUACGAGAU | -2.66 ± 0.16 | -1.34 ± 0.15
67 | AAGUAGCAAUAUUACGAGCA | -1.52 ± 0.15 | -0.816 ± 0.14
68 | AAGUAGCAAUAUUACGAUGU | -1.23 ± 0.1 | -0.476 ± 0.12
69 | AAGUAGCAAUAUUACGCGCA | -0.196 ± 0.11 | 0.0802 ± 0.13
70 | AAGUAGCAAUAUUACGGACC | – | -0.466 ± 0.37
71 | AAGUAGCAAUAUUACGGAGU | -2.54 ± 0.2 | -1.9 ± 0.22
72 | AAGUAGCAAUAUUACGGCAA | 0.196 ± 0.18 | -0.154 ± 0.22
73 | AAGUAGCAAUAUUACGGCAC | -1.17 ± 0.17 | -0.552 ± 0.17
74 | AAGUAGCAAUAUUACGGCGU | -0.422 ± 0.091 | 0.27 ± 0.11
75 | AAGUAGCAAUAUUACGGGAU | -3.14 ± 0.15 | -1.61 ± 0.14

Row | Sequence | self-splicing fitness (ln) (30 °C) | self-splicing fitness (ln) (37 °C)
76 | AAGUAGCAAUAUUACGGGCU | -2.02 ± 0.12 | -1.44 ± 0.13
77 | AAGUAGCAAUAUUACGGUGA | -1.03 ± 0.11 | -0.771 ± 0.14
78 | AAGUAGCAAUAUUACGGUUA | -0.841 ± 0.087 | -0.334 ± 0.085
79 | AAGUAGCAAUAUUACGUAAU | -2.31 ± 0.1 | 0.0619 ± 0.096
80 | AAGUAGCAAUAUUACGUCAA | -2.25 ± 0.1 | -0.583 ± 0.083
81 | AAGUAGCAAUAUUACGUCAG | -3.38 ± 0.19 | -2.43 ± 0.18
82 | AAGUAGCAAUAUUACGUCAU | -2.29 ± 0.13 | -0.997 ± 0.12
83 | AAGUAGCAAUAUUACGUCCG | -1.53 ± 0.14 | -1.93 ± 0.14
84 | AAGUAGCAAUAUUACGUCGG | -2.97 ± 0.25 | -2.09 ± 0.26
85 | AAGUAGCAAUAUUACGUCUU | -0.577 ± 0.12 | -0.48 ± 0.11
86 | AAGUAGCAAUAUUACGUUAA | -2.47 ± 0.23 | -2.33 ± 0.18
87 | AAUAAGCAAUAUUACGACAU | -0.117 ± 0.012 | 0.0514 ± 0.032
88 | AAUAAGCAAUAUUACGAGAC | -3.14 ± 0.47 | -1.18 ± 0.23
89 | AAUAAGCAAUAUUACGAGGU | -4.58 ± 0.27 | -2.11 ± 0.18
90 | AAUAAGCAAUAUUACGAGUU | -1.32 ± 0.087 | -1.1 ± 0.1
91 | AAUAAGCAAUAUUACGAUCA | -0.507 ± 0.12 | 0.576 ± 0.13
92 | AAUAAGCAAUAUUACGAUGA | -0.45 ± 0.1 | -0.0904 ± 0.11
93 | AAUAAGCAAUAUUACGAUGG | -2.53 ± 0.14 | -0.861 ± 0.12
94 | AAUAAGCAAUAUUACGCAAG | -1.77 ± 0.1 | -1.59 ± 0.14
95 | AAUAAGCAAUAUUACGCCUC | -2.43 ± 0.35 | -1.19 ± 0.31
96 | AAUAAGCAAUAUUACGCCUU | -0.502 ± 0.12 | -0.0645 ± 0.18
97 | AAUAAGCAAUAUUACGCGAC | -1.61 ± 0.14 | -1.46 ± 0.14
